Assay results from a protein production outcome set (Wang et al. 2014).

test: label from the status in PepcDB records
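Also: failed if final PepcDB status was selected cloned or expressed and not failed if soluble or beyond.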

Sequence	protein production
MVKTMSEVNFNSKAFTYADNALVQKSASEVLLNLLSIQPEEDVLDIGCGPGHITKKIAKITNGSVQGIDVSQGMIEQAISSNKDLPNLKYSVMDAENLELNTKFDVIVCNSCFQWFQKPDQVLMRCFNVLKEGGRIGIQAPATQSYCPNFISAIEKIRMHPYTREVFNHFKSPWFFFDSKDEYEQLFRNHGFDIIYSELREESNLFSVEQAYKIYQSGAENGYLNQSYYTVTLTDNYISTFRELVKEALQEQADNSGMINLKFERIYLVAKKQ	failed
MVKVPVLRIGKVAAPTGADHALAGSAFPAKNAIADVNPPASPWIDKSVAAQRTEKAGLAAPRSEVTLDFVPPVTRRTPRITFPRRGRSDWTHSLTNSLRMSDTALVAAAVFAGFALNTNGLSLAAESPAFTHHLMTGLILGLVWLGALEVYRTRDPKVLGVGPEEYKRVLSASFRVFGFLGIVAVVFRLDAVSSFVLVSLPLGLVALTGSRWSFRRWLSHEKSRGRCLSRAIVVGEPQDVRYVIKQINRKSGAAYDILGACLPGARRGAVLKVDHLRVPVLSSIYGIAHTVRQTGANAVIVAGPVPGGNQFIQELGWQLEENAAELVLAATLTNVAGPRIHWRPVEGLPLMHVDIPHYSGGKHTLKRLMDITVSASALLILSPILLLLAAIVHHDSPGPVLFRQERVGRRGTTFHMLKFRSMVVDAESRLEELNTRDEGAGVLFKIRGDPRITRCGRWMRKYSLDELPQFWNVLVGNMSLVGPRPPLAREVSGYERHTHRRLLIKPGITGLWQINGRSDLPWDEAVRLDLYYVENWSIAGDLIIMWRTFRAMIQPSGAY	failed
MVKYEELLKTLENGINSEEGEIRLVRKSQGRFKEEFNFDLSLGSKPLLTLKVFLGRKPYWQPWVEVFGVNPNLRNVFFGSEAERKLYEFLSEHFGRIFVEYFEDKETTYELQKGVPPALSRLGFELLKLGYTYFRDWYIPEGLMEGGHKIQAEKPKTEEAKKRHLENLKKEFEEFIGKCEDEGLIKKVKERYNFLEHEGSS	not failed
MVLETPVCSPIDKESSSDDVQLNKPPKKKRKLDVVYPPRDNTSSSSDVKPKVPGYCGVKAIGCNRSDELLAEVALHSYNSQTGTNLELMTVTQVMLQSVAHINYHMILDAFDPANNSLSSIEICLWDAAVKNNEKLRLVTTFCSLEGSGDKGSQWDPNGVDVLYTGVMPKWLDDGALSGSEKLHYYEVNDSDLQENKWLHLYAQVGAYSKWDLGMVKHFPLEIKKVVVQTMEDDIESNLKLKSSNAIFYITFTTSGGVECACIIRQTRNGRPQHMCLEINNVEMDK	failed
MVLMRYVGKRDLFTVGKYLGTIMQGVGFVVALPVFVAIIYGEGNLQSFIIPAFISLGAGTVLKRYLPEECSVRLKHGMMVACLAWLWAGLIGSLIMISALNIDFTNAFFENMSAWTGSGLTIFSSVESLPKSILFLRSLEQWIGGLGVVIVVIGILIRPGTAASRLYKSEARDERIKPSIANTVKTIWWIYITYTVLGIVLYGLTGMPLFDAINNTLTNLSTGGMSIKNMNIGYYHSAAVYLVTMLLMILGGTSFLVHYQLIKGRFFSVLHDIQLQATVVFISIFTILAVYVGGVAPLESIYHVISALSCTGSSISSTPQMVAWPAYFKVLLITCMLIGMAAGSTTGAVKIIRVITVLKGVYWEIMRILAPEGSVMPRKISGKSVSDTEIREAGSYISLYFVLLFFTWSVLVVYGYDPLNSLFEAASAQGNVGLSMGITSFNLPVVPKMALILSMWLGRLEIIPVIVLIRGLVEAFKAG	failed
MVMAPLPPVESLSLRQAIAQMIVVRGAGYLFDYERPYPQWEADQTTLQRWIEAGIGGVILLGGSAAEVAQKTKQLQSWAEIPLLIAADIEEGVGQRFRGATEFPPPMAFGEIWRTDPHQAIALAETMGATTAQEALSLGINWVLAPVLDVNNNPHNPVINIRAFGETPDQVSALGTAFIRGAQQYAVLTTAKHFPGHGDTATDSHLALPTISHDDTRLNTVELPPFKAAIQGGVDAVMNAHLMIPAWDQQYPATLSPAILTGQLRHKLGFKGLIVTDALVMGGITQFAAPDTVVVQAIAAGADILLMPPDVDGAIIAIETAIKTGQLSESRIYESVERIWQAKQKILTATPSTFPQGISGDRPETRKTVAMVLERATKHQKSLVKISSFPDNFARNLIVVDSVLKSPFLRPNCPAIAIPQRHGYAAEIVELKTLPRLQLEAIPTLIQCFLRGNPFTEKLADPIDVLQKIAAQIPLQGVIFYGSPYFLEALQTTLPEIPWWFSYGQMAIAQAEICTSLWEEAPQAAPSAAEFI	not failed
MVMEKALTLQQMPDFIVSTIPKGQASYLVFGERSIGKKDVIDIVIKQLEKIGFRTGVEQVPSVGETYKNQTLNSIMDKITGKTEVRDKNTIIKEYDEFTRNNKEKIVIAVYGVEKLSMESKNLFLYMCRISRNRNVTLIGTYNADSTDEYDRFINLIASEDYINIIKIEKPTIEDIAFLVKKMGYKLPDDFVKEIARLTNYNIDSMKYALRYYQDLGVINDRKEINTVSFRYIPVPPTTELYYEKMINSLTDLEKNVAYLMVMLSNDIDVDSAAIILNRKRTEVLNIIRKLEDKGLVKFNGQVVGFYSDKIRRSVEKSMKTSDIAYMTSLIESSQLFMRMPPAQRMHILMKANKLDEIRDIIKEKGQSLVDGYNSVDEVIEDLEQLGNVFSEDSDVKKVLCHAYYLKGRFDKAISCYMDIKPDHDLDSMIDLSSIYSNMGKFEEAEKILEDAKNNFTDDYPQTIISYRIAALYYRMGRYKDTIDMLTPLLGKIDAENMSGVKAGILNILGNIDMTSYRYGDALKKYNEALEINRKLSNYAEISRNLNNIALIDVYTGKYDLAISILKELIETTYSTGDLVSRIYAIYNLSEIYYVIGKQEYAEGYIPLMMRILDVVSEKRVSFHIYRFLTMYYVGLLDFKMAKKYAELAIENAIMEDQKIMAIIFHKIINYVLTGEDPNIDTQEIDSTNFTDDYTSTFLIALAYYYRIIENQEMAKHYVDMAEEAAYKMKIPYVIVNASFHKAVILLSIGDLDGFRRHFERMQKPPTTIQFYDDSFEIFRSIYDGNFDAIKSSKYRIIEEDHVNGTLKGLMPVILNAFALYKFSGIPDDLHHLINVTPEPYSRLLALITNYH	failed
MVMPESHIHNIPMEQCVLVALMTFALSYELIAQDLDEGCFYPERHKQIYNAIVELANENQPYDVVMVEQRLKSKNLLHVLGGEQYLKIMLAEAPSSFHSMEPYITQLKKLKAHRQVEWLGQRISSMAQDTTQPDVFAEAENILGQVDNQEQSDQGMSFEAALDMALTEMIEKAEAKDKQQFTGVKFNLKHLDELLGTVQKGHFCVVGGRPGSGKSTLAQMLALDTASSFGKGVLFISAEMDQSTLANRMISALGLIPYHNIHNAELYNGLMKDYADAKAAYQRLPIWIQPKQKPSLSEVRSYARRAKRRYKELGCIIVDYLQLLRDPSKKDRFQEVSSISRELKSMAKEFECPVIALVQLNREAEKGKRPKASDIKESGQIEQDADQIILVNPLTDPEDSTKPMGITELIVVKNRHGKRGAVRVLDYLETCRFRSVEEQAEP	failed
MVMSIEASCHCGETVFEVTEAPSSVTRCTCSLCAKRGSLWAYYKPAQFRLLSPPENVTTYLWGSRTVKHHFCASCGCGTYSESPDWSTGKPDFDNPKVAVNARLFDDFDLDAVPVNMIDGKNLWLEHHHHHH	not failed
MVNEGLIPSLEDEVKRRGVINQLRKIVVRWVKNVAWQHRLPQNQIDATNATILPYGSYGLGVYGSESDIDALCIGPFFASIADFFISLRDMLKSRREVSELHCVKDAKVPLIRFKFDGILVDLPYAQLRVLSIPNNVDVLNPFFLRDIDETSWKILSGVRANKCILQLVPSLELFQSLLRCVKLWAKRRGVYGNLNGFLGGVHMAILAAFVCGYQPNATLSSLLANFFYTFAHWQWPTPVVLLEDTYPSTGAPPGLMPIQLPCGSHQYCNSTITRSTFYKIVAEFLLGHNLTKDYLKLNFSWKDLFELYPYANTYTWFTKIHLSAANQEDLSDWVGWVKSRFRCLLIKIEEVYGICDPNPTEYVETYTKQPNIVFYWGLQLRTINVSDIESVKIDFLKNVNSGSFRGTVGRIQLTLVKASQLPKNGECGSNNRSKKVTKTCWRIREDKQCNNVPVYSKHLPGYVVGYQKMVNREADGMEVKC	failed
MVNQQEEINLSVALVTRNRPDSLERCLKSLRDQKVQPFEVVVSDDSDDLYKSSTKEIAQKWGCRYIDGPKRGLYANRNYVALACYGTHIRTMDDDHEFPEQHIEVCLNAIQSDPSSIWIIGEYSPTSSIENAPHPCPGQLHPRGFSFYPKDTQNCWAIADGASIYPKKIFASGLRFVEYYKFGASYLEWGSRLYYLSYRIRHLDSTYIIHHFNPKARSFSDQEMDQSSRFFAMLCHSFLYQSTFKNKCLFSYEILKQFILDPKLTIKCIINSWSNFELFSRSFCALEHHHHHH	failed
MVNRCFFFNRRICFMELFLLRHGKPDIRRSMAIRSVDMYSWIGEYDAAGILDSPDASTVAASEGKFIVSSPMPRALESVAALGLEPDIIIDELHEAPLPVFNIPLLKLTPLVWAALFRIFWMAGGSGGVETFSSVKIRAKLVSCELDKMAETHGSVLSVGHGFMNALVARELQKAGWKRQKVGPSGYWSGIKLVR	failed
MVPALALGLVIGVLLVVIGVSFAAMIFSGPLAPLATRGAGLTLFGAASLCGFLAVSSSFRSAISTPQDAPVAVLATMGVPVVAAMGMSDPNATFATMLAAMSIATLATGIALMAIGHFRLTRFFRFMPYPVVGGFLAGGGWMLVKGGISVMSSLSLNVESLPMLFESVHIWKWSPGVLYAISLWLVLKRWSHFLILPCSIVMVTAAYYVAFHILAISLADARAAGILLSGVPSSGLWPAFSISDLQTVRWDIVFDQTPIMFTVVLVTMMGLLLNISGLELGSGTDIDFDREFRNAGLANTLGGLGGSAPGSHTLSLSLLCSSSGAYTRLAGIITASVIAAVLFMGGSVLEYFPLPVLGGLLVFLGIDIMDSWLRATRRRLPLSDYLVLCVIFLVICFSGFLEGVAVGLVITVVLFIIRLSKVDIIHDSFTGLTLHSRVNRSIPQRTILQQHGERIRGYRLSGYLFFGSASLLVETLKQELRKTPQPWCILLDFKNVSGFDISAANAFQRFISSAHAEHVRIVLTETSPRFISMLQRILPIESIDNLVTAQDIDRGLEACEEAILTEYTERTAQQANAADMLFEQSVDDMMAHLDRQILFEALVEELRPWVQECHYEGETLLVEKGKTQQGLQMLVWGSATATDGDGGTRLAHLRAGDVLVPQAAFAPFVAREHIMADSPCRTVLLTAQARLLMEQENPDLALRLDRYVISSWKA	failed
MVQIIFDSKTGNVQRFVNKTGFQQIRKVDEMDHVDTPFVLVTYTTNFGQVPASTQSFLEKYAHLLLGVAASGNKVWGDNFAKSADTISRQYQVPILHKFELSGTSKDVELFTQEVERVVTKSSAKMDPVK	not failed
MVQTPSKPITLDEFLKLPETEPASEYIEGKIIQKPMPQGKHSAIQSECVSVINSVVKPQRIARAFLELRCTFGDHSTVPDISVFIWSRIPREENGEIANIFLIAPDWTIEILSPDQSQTKVTKNILHCLKHGTQMGWLIDPDEQTVFVYRPQQETEVFDEPDALVPVPSFASELHLSIKDLFSWLL	not failed
MVQVEKGHVAVVFLNDPERRNPLSPEMALSLLQALDDLEADPGVRAVVLTGRGKAFSAGADLAFLERVTELGAEENYRHSLSLMRLFHRVYTYPKPTVAAVNGPAVAGGAGLALACDLVVMDEEARLGYTEVKIGFVAALVSVILVRAVGEKAAKDLLLTGRLVEAREAKALGLVNRIAPPGKALEEAKALAEEVAKNAPTSLRLTKELLLALPGMGLEDGFRLAALANAWVRETGDLKEGIRAFFEKRPPRF	not failed
MVRISNMQFEVIENVKDGWNEEAFVERYSDVLNKYDYIVGDWGYNQLRLRGFFDDQNKKSTYDKKISTLQDYLYEYCNFGCAYFVVKRVKTESLEHHHHHH	failed
MVRKSIDRSTAAEITRGIGNVFADLGMPDAEERQTKLRLAYALNAVIDRARLSQAAAAARLGINQPKVSALRNYKLEGFSVERLMTLLNALDQDVEIVIRKKPRSRAAARISVVAA	not failed
MVRLIKTETVISVLMGHFIKKLLFILLFVGVLIAPANAQNEKNMYSYKKIGNKYIVSINNHTEIVKALNAFCKEKGILSGSINGIGAIGELTLRFFNPKTKAYDDKTFREQMEISNLTGNISSMNEQVYLHLHITVGRSDYSALAGHLLSAIQNGAGEFVVEDYSERISRTYNPDLGLNIYDFERLEHHHHHH	failed
